Measured values from patent US7604990.

Key:
PDGFR-α (human) = PDGFR-α (human) (UniProt P16234); assay: cell-based or functional assay
PDGFR-β (human) = PDGFR-β (human) (UniProt P09619); assay: cell-based or functional assay
Chain of PDGFR-β (human) (P09619 33-1106): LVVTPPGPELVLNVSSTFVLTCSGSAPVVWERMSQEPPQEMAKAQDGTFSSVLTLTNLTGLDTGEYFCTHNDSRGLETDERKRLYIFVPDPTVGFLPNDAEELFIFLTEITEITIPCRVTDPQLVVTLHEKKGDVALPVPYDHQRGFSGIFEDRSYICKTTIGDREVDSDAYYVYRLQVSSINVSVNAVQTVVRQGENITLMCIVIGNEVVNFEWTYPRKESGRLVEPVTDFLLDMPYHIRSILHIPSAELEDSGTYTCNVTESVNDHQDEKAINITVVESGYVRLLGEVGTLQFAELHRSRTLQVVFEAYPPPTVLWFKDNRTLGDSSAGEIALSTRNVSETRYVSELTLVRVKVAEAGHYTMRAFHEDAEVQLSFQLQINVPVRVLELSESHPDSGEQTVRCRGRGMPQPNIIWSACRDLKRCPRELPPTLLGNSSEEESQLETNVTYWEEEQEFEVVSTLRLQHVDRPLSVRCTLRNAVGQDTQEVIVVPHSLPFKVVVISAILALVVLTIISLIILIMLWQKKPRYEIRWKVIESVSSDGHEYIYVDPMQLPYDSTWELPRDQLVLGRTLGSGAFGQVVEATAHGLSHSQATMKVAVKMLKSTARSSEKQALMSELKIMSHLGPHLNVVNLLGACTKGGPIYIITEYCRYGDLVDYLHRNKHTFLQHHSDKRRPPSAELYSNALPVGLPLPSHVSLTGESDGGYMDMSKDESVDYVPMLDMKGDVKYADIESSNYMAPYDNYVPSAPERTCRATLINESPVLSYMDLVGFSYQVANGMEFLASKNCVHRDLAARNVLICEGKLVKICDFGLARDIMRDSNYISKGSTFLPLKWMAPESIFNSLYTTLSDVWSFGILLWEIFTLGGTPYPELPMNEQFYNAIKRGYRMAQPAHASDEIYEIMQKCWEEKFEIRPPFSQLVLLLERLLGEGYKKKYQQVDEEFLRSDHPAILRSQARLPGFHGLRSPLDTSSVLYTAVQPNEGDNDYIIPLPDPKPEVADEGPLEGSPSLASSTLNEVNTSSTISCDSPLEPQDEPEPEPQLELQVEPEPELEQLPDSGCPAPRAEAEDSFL

Chain of PDGFR-α (human) (P16234 24-1089): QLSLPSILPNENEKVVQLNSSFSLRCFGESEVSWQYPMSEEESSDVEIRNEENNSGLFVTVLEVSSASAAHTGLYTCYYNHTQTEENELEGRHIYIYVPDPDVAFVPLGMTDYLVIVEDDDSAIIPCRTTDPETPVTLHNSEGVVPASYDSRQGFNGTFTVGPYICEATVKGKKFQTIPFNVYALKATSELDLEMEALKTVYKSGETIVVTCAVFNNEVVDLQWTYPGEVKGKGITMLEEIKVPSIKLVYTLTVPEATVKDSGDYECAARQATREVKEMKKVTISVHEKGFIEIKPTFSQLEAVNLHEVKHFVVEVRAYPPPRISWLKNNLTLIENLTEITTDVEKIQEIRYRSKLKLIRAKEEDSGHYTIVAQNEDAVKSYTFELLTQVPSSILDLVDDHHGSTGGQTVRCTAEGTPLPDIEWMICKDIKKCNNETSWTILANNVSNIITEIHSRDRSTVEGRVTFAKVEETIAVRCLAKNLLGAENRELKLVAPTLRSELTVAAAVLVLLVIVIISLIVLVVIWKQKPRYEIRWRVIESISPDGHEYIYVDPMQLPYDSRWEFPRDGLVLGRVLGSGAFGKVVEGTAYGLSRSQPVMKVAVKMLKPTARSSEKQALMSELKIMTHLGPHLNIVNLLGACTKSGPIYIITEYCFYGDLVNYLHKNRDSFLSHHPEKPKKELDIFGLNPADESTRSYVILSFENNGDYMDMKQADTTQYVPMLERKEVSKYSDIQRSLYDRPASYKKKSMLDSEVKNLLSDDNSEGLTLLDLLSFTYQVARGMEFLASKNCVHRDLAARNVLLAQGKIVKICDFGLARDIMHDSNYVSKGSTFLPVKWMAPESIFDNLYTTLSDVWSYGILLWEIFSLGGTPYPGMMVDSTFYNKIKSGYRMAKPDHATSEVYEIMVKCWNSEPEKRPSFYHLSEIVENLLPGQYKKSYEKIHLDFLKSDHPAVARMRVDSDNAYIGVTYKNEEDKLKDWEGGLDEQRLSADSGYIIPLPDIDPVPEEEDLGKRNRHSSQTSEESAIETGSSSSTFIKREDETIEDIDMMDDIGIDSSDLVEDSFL

Row | GCTM2 expression (ELISA-based assay; hES cells treated 2 weeks in serum-free medium with S1P plus PDGF-AA) (PDGFR-α (human)) | GCTM2 expression (ELISA-based assay; hES cells treated 2 weeks in serum-free medium with S1P plus PDGF-AB) (% more GCTM2+ than the controls) (PDGFR-α (human)) | GCTM2 expression (ELISA-based assay; hES cells treated 2 weeks in serum-free medium with S1P plus PDGF-AB) (% more GCTM2+ than the controls) (PDGFR-β (human)) | Substance
1 | 220 % of control |  |  | Human PDGF-AA (from UniProt P04085 87-211) (ligand)
2 |  | 153 | 153 | Human PDGF-AB (from UniProt P04085 87-211; P01127 82-190) (ligand)
